# According to PMC6771245, “CMKLR1-targeting peptide tracers for PET/MR imaging of breast cancer” (Theranostics, 2019):
# Values joined by “and” are separate entries in the source; they are usually repeats but may differ in a detail not shown here. Equal values may be shown once. *1 amine or outer side, *2 acyl side, *3 side chain or, on linkers, in order; H or OH if unused. Where a SMILES comes first, the peptide text is derived from it. [ ]: non-standard residue; d: D form. The star is where a group is joined. X1 = O=C(O)CN1CCN(CC(=O)O)CCN(CC(=O)NCCCOCCOCCOCCCN*)CCN(CC(=O)O)CC1; DOTA = O=C(O)CN1CCN(CC(=O)O)CCN(CC(=O)*)CCN(CC(=O)O)CC1; NH(CH2)9CO = O=C(CCCCCCCCCN[*:1])[*:2]; Hyp = O=C(O)[C@@H]1C[C@@H](O)CN1; Tic = O=C(O)[C@@H]1Cc2ccccc2CN1; Cha = N[C@@H](CC1CCCCC1)C(=O)O; Cit = NC(=O)NCCC[C@H](N)C(=O)O; Suc = O=C(CCC(=O)[*:2])[*:1]; Octanoyl = CCCCCCCC(=O)*; Ahx = NCCCCCC(=O)O
# What was measured:
# [1] = system: DU4475/A549 xenograft model; assay: in vivo; details: mouse
# Source text: (§1) For in vivo experiments, at least 8-week-old female athymic NMRI-Foxn1^nu /Foxn1^nu mice (Janvier Labs, Saint-Berthevin, France) were used. Animal care followed institutional guidelines and all experiments were approved by local animal research authorities. For the generation of tumor xenografts, 5 x 10^6 cells of both DU4475 and A549 cells were inoculated subcutaneously into the right and left shoulder, respectively (1:1 phosphate-buffered saline [PBS]/Matrigel Basement Membrane Matrix High Concentration, Corning, Corning, USA). Part of the animals received SW13 lung cancer cells as a CMKLR1-negative control tumor. For the analysis of biodistribution, only data of […] and A549 xenograft tumors are used. Tumors were allowed to grow for two to four weeks (tumor volume > 100 mm^3) after cell inoculation.
# (§2) Radiolabeling of peptide-DOTA conjugates was carried out manually using ^177Lu from ITG Isotope Technologies Garching GmbH (Garching, Germany). A total of 50 µL (stock solution of peptide at 1 µg/µL in 10% DMSO in water) was added to 200 µL of acetate buffer (sodium acetate/acetic acid buffer, 0.4 M, pH 5.0) and 120 µL of gentisic solution prepared by dissolving 50 mg of gentisic acid in 1 mL of acetate buffer. The resulting mixture was then added to 35 µL of ^177Lu (1 GBq in aqueous 0.04 M HCl) and the reaction mixture was heated at 96 °C for 30 minutes followed by cooling for 10 minutes at room temperature. The product was then diluted with 5 mL of saline and used directly for animal experiments.
# (§3) Tumor-bearing mice were injected with approximately 10 MBq of ^68Ga-labeled DOTA-peptide or 1 MBq of ^177Lu-labeled DOTA-peptide to the tail vein via a catheter. […] Tumor, blood, stomach, pancreas, small intestine, colon, liver, spleen, kidney, heart, lung, muscle and femur samples were weighed and uptake of radioactivity was measured by a gamma counter. To determine the effect of unlabeled ligand on the tumor uptake, 200 nmol CG34 peptide (100-fold excess) was co-injected.
# [2] = in vivo; details: female, athymic NMRI-Foxn1^nu/Foxn1^nu, mouse, iv, 1 MBq, total radioactivity
# Source text: as §1, §2, §3
# [3] = Determination of LogD7.4 values; type: physicochemical; details: shake-flask octanol/PBS pH 7.4; 3 µL of 1 mM solution, 300 µL per phase, vortex 1 min, centrifuged 5 min 10,000 x g; HPLC peak area octanol/buffer, both phases analysed
# Description: Compounds (3 µL of a 1 mM solution) were diluted into 300 µL PBS pH 7.4 or octanol and mixed. 300 µL of the other phase was added, followed by vigorous mixing using a vortex shaker for one minute. The two phases were centrifuged (5 min, 10,000 x g). Following separation, 25 µL aliquots were removed for HPLC analysis. LogD7.4 was calculated by taking the logarithm of the ratio of the high-performance liquid chromatography (HPLC) peak area of each compound in octanol to the corresponding peak area in buffer. Consequently, logD7.4 values were based on analysis of both aqueous and octanol fractions.
# [4] = target: T1, huCMKLR1 (Homo sapiens, UniProt Q99788); assay: Competitive radioligand binding with ^125I-chemerin-9, membranes of HEK293a cells stably expressing huCMKLR1 and Gα16; details: unlabeled compound; radioligand ^125I-chemerin-9, 5 µg membrane, 1 h 37 °C; three independent experiments, mean ± SD; read-out: competition binding IC50 w/o ^natGa
# T1 construct: expressed in transfected cells; host or cells: HEK293a (membrane preparations)
# T1 sequence (Q99788 1-373): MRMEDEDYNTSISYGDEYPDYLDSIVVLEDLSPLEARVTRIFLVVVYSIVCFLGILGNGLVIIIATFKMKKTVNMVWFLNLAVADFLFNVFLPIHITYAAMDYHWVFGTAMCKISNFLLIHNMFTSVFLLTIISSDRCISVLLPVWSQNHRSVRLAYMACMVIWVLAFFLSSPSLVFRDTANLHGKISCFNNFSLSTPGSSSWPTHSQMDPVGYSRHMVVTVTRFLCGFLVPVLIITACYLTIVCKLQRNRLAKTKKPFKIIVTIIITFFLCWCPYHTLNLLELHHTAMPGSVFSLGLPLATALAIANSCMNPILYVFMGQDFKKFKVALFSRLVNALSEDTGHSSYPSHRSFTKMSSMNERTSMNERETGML
# Description: (§4) For in vitro analysis, HEK293a stably transfected with huCMKLR1 and Gα16 were used. For the in vivo mouse model, the human breast cancer cell line DU4475 with endogenous CMKLR1 expression and the target-negative human lung carcinoma cell line A549 were used. All cell lines were obtained from ATCC/LGC Standards (Wesel, Germany) and were cultured in RPMI1640 medium containing 10% fetal bovine serum (both from Biochrom, Berlin, Germany) and, in case of transfected cells, selection agents G418 (Biochrom, Berlin, Germany) and zeocin (Invitrogen, Carlsbad, USA).
# Competitive binding studies were performed with cell membrane preparations. […] […].
# (§5) All statistical analyses were performed using GraphPad Prism 5.04. EC50/IC50 values were determined by nonlinear sigmoidal curve fitting with variable slope setting, and normalized response for competitive binding results. Multiple group comparisons were done by a two-way ANOVA and Bonferroni post hoc test. All presented data are based on independent experiments. Normalizations and statistics are further defined in each figure legend.
# [5] = target: T1, huCMKLR1; assay: Calcium mobilization assay; type: cell-based; details: HEK293a huCMKLR1 Gα16 cells, Fluo-4 AM; three independent experiments, mean ± SD; read-out: Ca^2+ assay EC50
# Description: as §4
# Optical ViewPlate 96-well microplates (PerkinElmer, Waltham, USA) were coated with poly-D-lysine (10 µg/mL, 50 µL/well) for 30 minutes at 37 °C, washed with PBS and air dried before seeding 40,000 HEK293a huCMKLR1 Gα16 cells per well. The next day, cells were starved with serum-free medium for 30 minutes and incubated with loading medium consisting of serum-free medium with 2.5 mM probenicid (Sigma-Aldrich, St. Louis, USA) and 2 µM Fluo-4 AM (Thermo Fisher Scientific, Waltham, USA). After a loading time of 45 minutes, cells were washed with 100 μL C1 buffer (130 mM NaCl, 5 mM KCl, 10 mM 4-(2-hydroxyethyl)-1-piperazineethanesulfonic acid [HEPES], 2 mM CaCl2, 10 mM glucose) followed by 20 minutes of incubation in the dark. After another washing and incubation cycle, the cell plate was placed into the CellLux Calcium Imaging System (PerkinElmer, Waltham, USA) and the assay was performed automatically according to the following protocol. After a baseline measurement for 30 seconds, the ligands (prepared in C1 buffer with 0.5% BSA in double concentration and pipetted in a U-bottom plate) were added on top of the cells and the fluorescence intensity was recorded for further 60 seconds. Obtained raw data were analyzed using AssayPro (PerkinElmer, Waltham, USA). After spatial uniformity correction, maximum response values (F) were normalized to baseline values (F0) of each well using the following equation:
# response = ΔF/F0 = (F - F0)/F0.
# as §5
SMILES,logD [3],IC50 [4],EC50 [5],also measured
"C[C@@H](NC(=O)[C@H](Cc1ccccc1)NC(=O)[C@H](CCCNC(N)=O)NC(=O)CNC(=O)[C@@H]1C[C@@H](O)CN1C(=O)[C@H](CC1CCCCC1)NC(=O)[C@H](Cc1ccc(O)cc1)NC(=O)CCCCCNC(=O)CN1CCN(CC(=O)O)CCN(CC(=O)O)CCN(CC(=O)O)CC1)C(=O)N1Cc2ccccc2C[C@H]1C(=O)N[C@@H](CO)C(=O)O [[^177Lu]Lu-DOTA-AHX-CG34, metal not drawn] ({DOTA-Ahx}-Y[Cha][Hyp]G[Cit]F[dA][Tic]S-OH)",–,–,–,DU4475 uptake after 24 hours as % of the 1 h-value [1]: approx. 64%; decrease of DU4475 tumor signal from one to 24 hours p.i. [1]: approximately 36%; higher uptake in DU4475 than A549 [1]: 1.4 fold; tissue uptake at 1 h ([2]; A549 tumor uptake): 2.3 %ID/g; tissue uptake at 24 h ([2]; A549 tumor uptake): 0.4 %ID/g; tissue uptake at 1 h ([2]; DU4475 tumor uptake): 3.3 %ID/g; tissue uptake at 24 h ([2]; DU4475 tumor uptake): 2.1 %ID/g; tissue uptake at 1 h ([2]; kidneys uptake): 4.7 %ID/g; tissue uptake at 24 h ([2]; kidneys uptake): 1 %ID/g; tissue uptake at 1 h ([2]; lung uptake): 5.6 %ID/g; tissue uptake at 1 h ([2]; spleen uptake): 5.8 %ID/g; tissue uptake at 24 h ([2]; spleen uptake): 1.7 %ID/g
C[C@@H](NC(=O)[C@H](Cc1ccccc1)NC(=O)[C@H](CCCNC(N)=O)NC(=O)CNC(=O)[C@@H]1C[C@@H](O)CN1C(=O)[C@H](CC1CCCCC1)NC(=O)[C@H](Cc1ccc(O)cc1)NC(=O)CCCCCCCCCNC(=O)CN1CCN(CC(=O)O)CCN(CC(=O)O)CCN(CC(=O)O)CC1)C(=O)N1Cc2ccccc2C[C@H]1C(=O)N[C@@H](CO)C(=O)O [DOTA-ADX-CG34] ({DOTA}-[NH(CH2)9CO]Y[Cha][Hyp]G[Cit]F[dA][Tic]S-OH),1.35 ± 0.31,0.65 ± 0.15 nM,0.65 ± 0.1 nM,–
CSCC[C@H](NC(=O)CNC(=O)[C@@H]1CCCN1C(=O)[C@H](CC1CCCCC1)NC(=O)[C@@H](N)Cc1ccc(O)cc1)C(=O)N[C@@H](Cc1ccc(O)cc1)C(=O)N[C@@H](C)C(=O)N[C@@H](Cc1ccccc1)C(=O)N[C@H](Cc1ccccc1)C(=O)O [CG36] (H-Y[Cha]PGMYAF[dF]-OH),–,0.1 nM,0.9 nM,–
C[C@@H](NC(=O)[C@H](Cc1ccccc1)NC(=O)[C@H](CCCNC(N)=O)NC(=O)CNC(=O)[C@@H]1C[C@@H](O)CN1C(=O)[C@H](CC1CCCCC1)NC(=O)[C@H](Cc1ccc(O)cc1)NC(=O)CCC(=O)NCCCOCCOCCOCCCNC(=O)CN1CCN(CC(=O)O)CCN(CC(=O)O)CCN(CC(=O)O)CC1)C(=O)N1Cc2ccccc2C[C@H]1C(=O)N[C@@H](CO)C(=O)O [DOTA-TTDS-CG34] ({X1-Suc}-Y[Cha][Hyp]G[Cit]F[dA][Tic]S-OH),-1.01 ± 0.39,0.66 nM and ~0.6 nM,–,–
CCCCCCCC(=O)NCCCC[C@H](NC(=O)CN1CCN(CC(=O)O)CCN(CC(=O)O)CCN(CC(=O)O)CC1)C(=O)N[C@@H](Cc1ccc(O)cc1)C(=O)N[C@@H](CC1CCCCC1)C(=O)N1C[C@H](O)C[C@H]1C(=O)NCC(=O)N[C@@H](CCCNC(N)=O)C(=O)N[C@@H](Cc1ccccc1)C(=O)N[C@H](C)C(=O)N1Cc2ccccc2C[C@H]1C(=O)N[C@@H](CO)C(=O)O [DOTA-KCap-CG34] ({DOTA}-K(Octanoyl)Y[Cha][Hyp]G[Cit]F[dA][Tic]S-OH),1.29 ± 0.68,0.44 ± 0.16 nM,1.34 ± 0.14 nM,–
CSCC[C@H](NC(=O)CNC(=O)[C@@H]1CCCN1C(=O)[C@H](CC1CCCCC1)NC(=O)[C@H](Cc1ccc(O)cc1)NC(=O)CCCCCNC(=O)CN1CCN(CC(=O)O)CCN(CC(=O)O)CCN(CC(=O)O)CC1)C(=O)N[C@@H](Cc1ccc(O)cc1)C(=O)N[C@@H](C)C(=O)N[C@@H](Cc1ccccc1)C(=O)N[C@H](Cc1ccccc1)C(=O)O [DOTA-AHX-CG36] ({DOTA-Ahx}-Y[Cha]PGMYAF[dF]-OH),2.27 ± 0.47,0.13 ± 0.08 nM,1.53 nM,–
C[C@@H](NC(=O)[C@H](Cc1ccccc1)NC(=O)[C@H](CCCNC(N)=O)NC(=O)CNC(=O)[C@@H]1C[C@@H](O)CN1C(=O)[C@H](CC1CCCCC1)NC(=O)[C@H](Cc1ccc(O)cc1)NC(=O)CCCCCNC(=O)CN1CCN(CC(=O)O)CCN(CC(=O)O)CCN(CC(=O)O)CC1)C(=O)N1Cc2ccccc2C[C@H]1C(=O)N[C@@H](CO)C(=O)O [DOTA-AHX-CG34] ({DOTA-Ahx}-Y[Cha][Hyp]G[Cit]F[dA][Tic]S-OH),-0.96 ± 0.2,1.05 ± 0.81 nM,0.79 ± 0.28 nM,–
C[C@@H](NC(=O)[C@H](Cc1ccccc1)NC(=O)[C@H](CCCNC(N)=O)NC(=O)CNC(=O)[C@@H]1C[C@@H](O)CN1C(=O)[C@H](CC1CCCCC1)NC(=O)[C@@H](N)Cc1ccc(O)cc1)C(=O)N1Cc2ccccc2C[C@H]1C(=O)N[C@@H](CO)C(=O)O [CG34] (H-Y[Cha][Hyp]G[Cit]F[dA][Tic]S-OH),–,1 nM,0.4 nM,–
